Assay results from patent publication US20140072613A1, “Compositions and Methods for Treating Cutaneous Scarring” (priority 2012, published 2014).

How the values were obtained:
Assay in all cases: biochemical
Type in all cases: biochemical
[1] = target: 266 human kinases (Homo sapiens, UniProt P43250); details: GRK6(h); 100 μM
Procedure, shortened: (§1)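 A filter-capture radiometric assay: phosphorylated cationic substrate binds an anionic membrane and is scintillation-counted, with values referenced to full-activity control.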

[2] = target: 266 human kinases (Homo sapiens, UniProt P50613); details: CDK7/cyclinH/MAT1(h); 100 μM
266 human kinases (Homo sapiens, UniProt P50613), sequence (P50613 whole entry): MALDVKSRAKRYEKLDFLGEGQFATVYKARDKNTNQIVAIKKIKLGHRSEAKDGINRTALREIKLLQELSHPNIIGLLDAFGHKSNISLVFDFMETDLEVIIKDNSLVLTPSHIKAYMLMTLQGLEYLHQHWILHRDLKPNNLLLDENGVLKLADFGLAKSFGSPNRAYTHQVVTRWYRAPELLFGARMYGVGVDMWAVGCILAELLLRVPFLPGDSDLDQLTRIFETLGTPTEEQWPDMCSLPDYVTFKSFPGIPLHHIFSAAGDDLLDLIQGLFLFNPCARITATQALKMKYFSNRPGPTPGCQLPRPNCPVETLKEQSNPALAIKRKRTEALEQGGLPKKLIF
Procedure, shortened: as §1

[3] = target: 266 human kinases (Homo sapiens, UniProt P54646); details: AMPKα2(h); 100 μM
Procedure, shortened: as §1

[4] = target: 266 human kinases (Homo sapiens, UniProt Q16539, T106M); details: SAPK2a(T106M)(h); 100 μM
266 human kinases (Homo sapiens, UniProt Q16539, T106M), sequence (Q16539 whole entry T106M): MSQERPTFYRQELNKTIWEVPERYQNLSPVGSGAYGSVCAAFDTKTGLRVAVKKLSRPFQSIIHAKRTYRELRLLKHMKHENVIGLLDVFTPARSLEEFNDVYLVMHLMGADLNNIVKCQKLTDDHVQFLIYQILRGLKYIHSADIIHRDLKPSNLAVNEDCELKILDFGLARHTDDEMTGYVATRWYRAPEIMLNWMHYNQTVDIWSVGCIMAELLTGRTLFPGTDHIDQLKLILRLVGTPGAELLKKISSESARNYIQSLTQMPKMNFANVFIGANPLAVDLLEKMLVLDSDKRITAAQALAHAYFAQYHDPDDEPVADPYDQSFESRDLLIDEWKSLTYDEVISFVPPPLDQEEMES
Procedure, shortened: as §1

[5] = target: 266 human kinases (Homo sapiens, UniProt Q05655); details: PKGδ(h); 100 μM
Procedure, shortened: as §1

[6] = target: 266 human kinases (Homo sapiens, UniProt Q14680); details: MELK(h); 100 μM
Procedure, shortened: as §1

[7] = target: 266 human kinases (Homo sapiens, UniProt P35968); details: KDR(h); 100 μM
Procedure, shortened: as §1

[8] = target: T1, 266 human kinases (Homo sapiens, UniProt Q06418); details: Rse(h); 100 μM
T1 sequence (Q06418 41-890): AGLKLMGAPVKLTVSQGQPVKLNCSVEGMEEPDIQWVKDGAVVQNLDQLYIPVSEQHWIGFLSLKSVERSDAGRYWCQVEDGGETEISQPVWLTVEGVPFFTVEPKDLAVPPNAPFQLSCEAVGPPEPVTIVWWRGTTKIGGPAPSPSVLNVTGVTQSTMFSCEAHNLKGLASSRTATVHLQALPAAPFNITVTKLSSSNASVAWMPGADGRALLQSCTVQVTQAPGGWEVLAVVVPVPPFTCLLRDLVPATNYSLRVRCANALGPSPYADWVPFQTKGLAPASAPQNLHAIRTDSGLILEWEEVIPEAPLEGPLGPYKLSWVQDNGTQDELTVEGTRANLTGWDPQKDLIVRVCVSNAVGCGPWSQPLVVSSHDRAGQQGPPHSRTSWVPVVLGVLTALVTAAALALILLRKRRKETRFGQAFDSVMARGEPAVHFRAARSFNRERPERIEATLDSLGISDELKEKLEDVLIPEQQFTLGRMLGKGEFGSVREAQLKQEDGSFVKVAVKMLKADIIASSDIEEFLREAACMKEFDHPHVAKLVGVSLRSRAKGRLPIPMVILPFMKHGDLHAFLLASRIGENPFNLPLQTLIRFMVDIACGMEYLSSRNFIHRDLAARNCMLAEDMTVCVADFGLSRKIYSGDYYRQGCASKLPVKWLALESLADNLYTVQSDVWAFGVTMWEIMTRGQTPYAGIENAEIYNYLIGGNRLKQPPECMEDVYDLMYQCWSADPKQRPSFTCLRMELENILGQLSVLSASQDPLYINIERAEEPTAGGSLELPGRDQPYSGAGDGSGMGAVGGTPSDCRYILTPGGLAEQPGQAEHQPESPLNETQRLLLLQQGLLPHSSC
Procedure, shortened: as §1

[9] = target: 266 human kinases (Homo sapiens, UniProt Q02763, Y897S); details: Tie2(Y897S)(h); 100 μM
266 human kinases (Homo sapiens, UniProt Q02763, Y897S), sequence (Q02763 23-1124 Y897S): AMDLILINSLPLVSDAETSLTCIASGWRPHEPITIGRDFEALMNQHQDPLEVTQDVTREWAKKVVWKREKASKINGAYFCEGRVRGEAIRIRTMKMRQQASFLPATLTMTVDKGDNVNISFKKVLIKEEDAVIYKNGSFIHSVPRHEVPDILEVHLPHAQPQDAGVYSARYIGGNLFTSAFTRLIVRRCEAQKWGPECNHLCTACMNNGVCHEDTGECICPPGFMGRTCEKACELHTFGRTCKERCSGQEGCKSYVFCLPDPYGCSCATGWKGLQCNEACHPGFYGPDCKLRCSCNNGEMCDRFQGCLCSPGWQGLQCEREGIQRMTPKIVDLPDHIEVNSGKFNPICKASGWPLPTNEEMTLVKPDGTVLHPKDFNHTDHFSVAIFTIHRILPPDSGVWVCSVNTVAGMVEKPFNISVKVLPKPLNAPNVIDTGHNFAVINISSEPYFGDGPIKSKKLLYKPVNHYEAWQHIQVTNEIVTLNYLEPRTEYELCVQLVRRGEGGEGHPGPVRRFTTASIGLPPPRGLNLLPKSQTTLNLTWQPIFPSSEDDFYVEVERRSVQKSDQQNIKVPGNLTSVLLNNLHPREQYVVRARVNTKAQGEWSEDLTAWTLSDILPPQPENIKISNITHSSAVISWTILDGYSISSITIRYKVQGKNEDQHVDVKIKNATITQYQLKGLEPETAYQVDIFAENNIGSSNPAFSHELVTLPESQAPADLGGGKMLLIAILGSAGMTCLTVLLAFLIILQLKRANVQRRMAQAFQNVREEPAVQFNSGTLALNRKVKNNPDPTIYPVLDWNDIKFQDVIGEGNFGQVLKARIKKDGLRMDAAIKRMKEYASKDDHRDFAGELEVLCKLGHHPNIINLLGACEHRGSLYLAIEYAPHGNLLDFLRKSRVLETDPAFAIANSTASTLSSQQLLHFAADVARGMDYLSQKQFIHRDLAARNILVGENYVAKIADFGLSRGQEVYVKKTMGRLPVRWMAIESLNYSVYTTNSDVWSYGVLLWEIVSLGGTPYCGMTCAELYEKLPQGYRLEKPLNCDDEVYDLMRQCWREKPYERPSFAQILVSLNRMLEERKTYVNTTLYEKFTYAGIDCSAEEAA
Procedure, shortened: as §1

[10] = target: 266 human kinases (Homo sapiens, UniProt P06239); details: 100 μM
266 human kinases (Homo sapiens, UniProt P06239), sequence (P06239 whole entry): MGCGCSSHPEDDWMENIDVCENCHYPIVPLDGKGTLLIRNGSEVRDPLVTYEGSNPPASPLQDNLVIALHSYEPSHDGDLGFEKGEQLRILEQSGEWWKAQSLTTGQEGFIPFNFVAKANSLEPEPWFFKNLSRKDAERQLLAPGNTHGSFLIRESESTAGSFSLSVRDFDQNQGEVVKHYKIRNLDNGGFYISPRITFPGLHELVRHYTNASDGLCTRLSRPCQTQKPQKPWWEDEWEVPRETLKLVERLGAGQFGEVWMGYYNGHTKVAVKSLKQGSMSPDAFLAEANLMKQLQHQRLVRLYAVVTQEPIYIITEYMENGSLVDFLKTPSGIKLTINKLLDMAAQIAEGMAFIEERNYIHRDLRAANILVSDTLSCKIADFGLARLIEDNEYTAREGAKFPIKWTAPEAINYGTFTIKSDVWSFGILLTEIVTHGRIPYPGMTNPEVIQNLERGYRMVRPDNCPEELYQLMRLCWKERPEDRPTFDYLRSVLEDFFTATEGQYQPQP
Procedure, shortened: as §1

[11] = target: T2, 266 human kinases (Homo sapiens, UniProt P51956); details: NEK3(h); 100 μM
T2 sequence (P51956 1-506): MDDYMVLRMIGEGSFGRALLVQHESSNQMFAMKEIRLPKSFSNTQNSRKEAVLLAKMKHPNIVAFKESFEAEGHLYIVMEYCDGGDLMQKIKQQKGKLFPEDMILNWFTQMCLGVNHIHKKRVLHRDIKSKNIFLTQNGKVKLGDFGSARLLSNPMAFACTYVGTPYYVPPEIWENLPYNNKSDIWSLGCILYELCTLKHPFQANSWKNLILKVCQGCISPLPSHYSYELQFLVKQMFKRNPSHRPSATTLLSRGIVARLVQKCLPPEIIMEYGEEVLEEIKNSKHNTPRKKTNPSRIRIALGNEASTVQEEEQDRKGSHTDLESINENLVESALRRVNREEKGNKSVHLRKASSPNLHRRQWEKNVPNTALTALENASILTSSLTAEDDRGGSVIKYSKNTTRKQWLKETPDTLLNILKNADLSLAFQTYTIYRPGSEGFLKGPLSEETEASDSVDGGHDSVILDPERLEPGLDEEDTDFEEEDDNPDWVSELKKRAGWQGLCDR
Procedure, shortened: as §1

[12] = target: 266 human kinases (Homo sapiens, UniProt P49841); details: 6SK3β(h); 100 μM
266 human kinases (Homo sapiens, UniProt P49841), sequence (P49841 whole entry): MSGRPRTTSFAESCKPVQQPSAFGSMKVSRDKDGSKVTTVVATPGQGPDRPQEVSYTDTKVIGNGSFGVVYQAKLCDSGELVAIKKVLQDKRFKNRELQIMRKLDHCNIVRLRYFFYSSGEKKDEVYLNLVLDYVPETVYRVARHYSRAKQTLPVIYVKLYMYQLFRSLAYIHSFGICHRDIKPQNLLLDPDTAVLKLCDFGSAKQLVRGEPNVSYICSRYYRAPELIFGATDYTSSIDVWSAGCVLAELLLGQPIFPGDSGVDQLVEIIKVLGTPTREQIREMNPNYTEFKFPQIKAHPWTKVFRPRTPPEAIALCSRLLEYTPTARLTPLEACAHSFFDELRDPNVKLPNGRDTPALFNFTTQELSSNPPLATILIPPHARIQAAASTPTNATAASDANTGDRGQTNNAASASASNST
Procedure, shortened: as §1

[13] = target: 266 human kinases (Homo sapiens, UniProt P48730); details: CK1δ(h); 100 μM
266 human kinases (Homo sapiens, UniProt P48730), sequence (P48730 whole entry): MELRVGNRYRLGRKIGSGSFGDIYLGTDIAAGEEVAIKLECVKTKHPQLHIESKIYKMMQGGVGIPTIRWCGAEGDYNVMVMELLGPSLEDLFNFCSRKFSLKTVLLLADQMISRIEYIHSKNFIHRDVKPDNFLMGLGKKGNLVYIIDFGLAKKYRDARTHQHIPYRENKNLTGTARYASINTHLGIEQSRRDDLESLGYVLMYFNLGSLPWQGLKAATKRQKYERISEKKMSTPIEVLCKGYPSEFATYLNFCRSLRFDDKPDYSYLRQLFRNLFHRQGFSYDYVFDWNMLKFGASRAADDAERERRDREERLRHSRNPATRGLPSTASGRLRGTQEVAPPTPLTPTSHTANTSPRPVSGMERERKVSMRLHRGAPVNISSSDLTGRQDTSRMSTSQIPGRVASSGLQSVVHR
Procedure, shortened: as §1

[14] = target: 266 human kinases (Homo sapiens, UniProt P54764); details: EphA4(h); 100 μM
266 human kinases (Homo sapiens, UniProt P54764), sequence (P54764 20-986): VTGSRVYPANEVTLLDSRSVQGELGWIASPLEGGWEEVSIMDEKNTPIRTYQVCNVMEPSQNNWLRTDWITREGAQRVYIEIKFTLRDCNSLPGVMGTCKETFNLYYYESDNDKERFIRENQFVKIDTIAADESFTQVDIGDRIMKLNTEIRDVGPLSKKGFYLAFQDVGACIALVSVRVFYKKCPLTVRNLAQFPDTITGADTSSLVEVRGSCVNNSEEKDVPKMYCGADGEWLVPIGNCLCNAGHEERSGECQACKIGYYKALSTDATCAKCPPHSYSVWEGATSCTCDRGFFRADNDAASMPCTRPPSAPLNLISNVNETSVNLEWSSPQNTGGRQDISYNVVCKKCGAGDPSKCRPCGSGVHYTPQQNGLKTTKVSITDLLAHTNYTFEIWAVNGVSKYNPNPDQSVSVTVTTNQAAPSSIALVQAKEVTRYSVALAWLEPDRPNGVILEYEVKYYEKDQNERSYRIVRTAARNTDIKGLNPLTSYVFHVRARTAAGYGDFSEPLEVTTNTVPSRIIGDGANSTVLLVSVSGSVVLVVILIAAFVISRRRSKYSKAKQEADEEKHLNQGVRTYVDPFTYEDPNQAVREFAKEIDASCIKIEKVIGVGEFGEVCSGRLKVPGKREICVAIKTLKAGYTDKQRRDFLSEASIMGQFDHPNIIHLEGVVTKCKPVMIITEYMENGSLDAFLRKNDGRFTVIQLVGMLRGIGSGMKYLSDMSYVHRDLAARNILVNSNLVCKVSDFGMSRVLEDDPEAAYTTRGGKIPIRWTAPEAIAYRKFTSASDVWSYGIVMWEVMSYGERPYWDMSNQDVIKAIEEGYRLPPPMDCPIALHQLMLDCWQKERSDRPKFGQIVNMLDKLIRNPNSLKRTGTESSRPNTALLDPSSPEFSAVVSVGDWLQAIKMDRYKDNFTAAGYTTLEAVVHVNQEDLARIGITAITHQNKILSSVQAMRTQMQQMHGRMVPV
Procedure, shortened: as §1

266 human kinases (Homo sapiens, UniProt P43250), sequence (P43250 whole entry): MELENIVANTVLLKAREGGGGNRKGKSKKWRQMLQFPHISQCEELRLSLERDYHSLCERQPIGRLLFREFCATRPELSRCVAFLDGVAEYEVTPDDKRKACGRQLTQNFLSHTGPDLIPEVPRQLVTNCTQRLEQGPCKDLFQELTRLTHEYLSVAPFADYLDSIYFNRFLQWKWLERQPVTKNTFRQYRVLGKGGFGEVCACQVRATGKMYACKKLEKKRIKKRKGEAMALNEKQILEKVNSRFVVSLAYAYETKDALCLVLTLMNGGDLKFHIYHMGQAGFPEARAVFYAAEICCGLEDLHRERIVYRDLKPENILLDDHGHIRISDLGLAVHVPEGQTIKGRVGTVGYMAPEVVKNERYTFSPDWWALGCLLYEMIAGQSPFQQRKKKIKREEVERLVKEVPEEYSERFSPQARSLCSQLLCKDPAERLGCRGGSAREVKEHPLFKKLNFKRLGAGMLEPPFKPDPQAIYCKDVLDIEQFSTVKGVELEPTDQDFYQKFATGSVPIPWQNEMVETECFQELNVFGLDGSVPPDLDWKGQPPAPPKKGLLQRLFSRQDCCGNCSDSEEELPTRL

Sequence | % activity [1] | % activity [2] | % activity [3] | % activity [4] | % activity [5] | % activity [6] | % activity [7] | % activity [8] | % activity [9] | % activity ([10]; Lck(h) activated) | % activity ([10]; Lck(h)) | % activity [11] | % activity [12] | % activity [13] | % activity [14]
HRRIKAWLKKIKALARQLGVAA (mammal) [MMI-0500] | 174% | 15% | 9% | 32% | 61% | 0% | 15% | 63% | 80% | 76% | 359% | 20% | 238% | 78% | 48%
YARAAARQARAKALNRQLGVA (mammal) [MMI-0200] | 132% | 67% | 88% | 100% | 101% | 59% | 110% | 88% | 85% | 90% | – | 100% | 132% | 92% | 127%
